Laboratory results published in patent US20150266936A1.
One block for each binder: values may come before it. Starred links: 1 amine or outer side, 2 acyl side, 3 side chain; linkers in the order of their positions; H or OH if unused. Non-standard residues stand in square brackets, D forms with d. No end group written: not given here. AO = 2-amino-3-(2-(aminooxy)acetamido)propanoic acid, O=C(CON[*:3])NC[C@H](N[*:1])C(=O)[*:2]

Tests used:
[1] = target: αvβ3, αvβ5, and α5β1 integrins on U87MG cells (human) (UniProt P06756); test: cell-based or functional assay
[2] = target: αvβ3, αvβ5, and α5β1 integrins on U87MG cells (human) (UniProt P06756); test: ratio of IC50 values, competition binding on U87MG cells
[3] = target: αvβ3, αvβ5, and α5β1 integrins on U87MG cells (human) (UniProt P06756); test: competition binding on U87MG cells, flow cytometry; competitor 0.25 nM Alexa488-labeled EETI 2.5F; 4 °C, 10 h
[4] = target: αvβ3, αvβ5, and α5β1 integrins on U87MG cells (human) (UniProt P06756); test: competition binding on U87MG cells, flow cytometry; competitor 5 nM Alexa488-labeled AgRP 7C; 4 °C, 10 h

Adhesion EC50 (nM), U87MG cell adhesion to fibronectin [1]: 8 nM | fold more effective than the monomer in preventing U87MG cell adhesion [1]: 100 fold | fold more potent than Cilengitide at inhibiting U87MG cell proliferation [1]: 100 fold | inhibition of U87MG proliferation, 10 nM, 72 h (AlamarBlue) [1]: 28% | inhibition of U87MG proliferation, 100 nM, 72 h (AlamarBlue) [1]: 52% | inhibition of U87MG proliferation, 500 nM, 24 h (AlamarBlue) [1]: 53% | inhibition of U87MG proliferation, 500 nM, 48 h (AlamarBlue) [1]: 68% | inhibition of U87MG proliferation, 500 nM, 72 h (AlamarBlue) [1]: 69% | inhibition of U87MG proliferation, 1000 nM, 72 h (AlamarBlue) [1]: 70% | fold increase of apparent binding affinity compared to the monomer [2]: 46 fold | IC50 [3]: 0.036 nM
B1: EETI 2.5F Dimer (designed binder)
chain: GCPRPRGDNPPLTC[AO]QDSDCLAGCVCGPNGFCG
modifications: not fully specified (residue 15, bridges); ends and bridges not checked; also: homodimer: two copies joined by oxime-bonded dialdehyde linker at X15

IC50 [3]: 1.57 nM
Binder: GCPRPRGDNPPLTC[AO]QDSDCLAGCVCGPNGFCG (designed binder, disulfide (positions not given here)) [EETI 2.5F_AO]

IC50 [4]: 3.2 nM | fold increase of apparent binding affinity compared to the monomer [2]: 4 fold
B2: AgRP 7C Dimer (designed binder)
chain: GCVRLHESCLGQQVPCCDPAATCYCYGRGDNDLRCYC[AO]
modifications: not fully specified (residue 38, bridges); ends and bridges not checked; also: homodimer: two copies joined by oxime-bonded dialdehyde linker at X38

IC50 [4]: 13 nM
Binder: GCVRLHESCLGQQVPCCDPAATCYCYGRGDNDLRCYCR (designed binder, not fully specified (bridges); cysteine pairing not given here) [AgRP 7C]

Adhesion EC50 (nM), U87MG cell adhesion to fibronectin [1]: 180 nM | inhibition of U87MG proliferation, 10 nM, 72 h (AlamarBlue) [1]: 15% | inhibition of U87MG proliferation, 100 nM, 72 h (AlamarBlue) [1]: 30% | inhibition of U87MG proliferation, 500 nM, 24 h (AlamarBlue) [1]: 37% | inhibition of U87MG proliferation, 500 nM, 48 h (AlamarBlue) [1]: 44% | inhibition of U87MG proliferation, 500 nM, 72 h (AlamarBlue) [1]: 50% | inhibition of U87MG proliferation, 1000 nM, 72 h (AlamarBlue) [1]: 60% | IC50 [3]: 1.64 nM
Binder: GCPRPRGDNPPLTCKQDSDCLAGCVCGPNGFCG (designed binder) [EETI 2.5F]
